In article PMC6759063 (Oncogene, 2008):

Target: cyclin D1 (human (endogenous in HK18), UniProt P24385 1-295)
Experiment: co-IP

Chain of cyclin D1 (P24385 whole entry): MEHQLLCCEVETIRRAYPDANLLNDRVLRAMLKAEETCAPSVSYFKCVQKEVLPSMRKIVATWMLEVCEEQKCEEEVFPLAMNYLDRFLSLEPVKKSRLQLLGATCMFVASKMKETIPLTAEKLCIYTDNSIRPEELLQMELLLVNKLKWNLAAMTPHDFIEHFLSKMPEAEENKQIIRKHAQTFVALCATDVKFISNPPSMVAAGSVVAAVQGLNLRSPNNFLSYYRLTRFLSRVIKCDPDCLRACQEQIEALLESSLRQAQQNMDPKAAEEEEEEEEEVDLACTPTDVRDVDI

- fold decrease of the co-precipitated complex after LDIR (densitometry): ~50 times
B1: 14-3-3ζ (natural protein, human (endogenous in HK18), UniProt P63104 1-245, looked up)
chain: MDKNELVQKAKLAEQAERYDDMAACMKSVTEQGAELSNEERNLLSVAYKNVVGARRSSWRVVSSIEQKTEGAEKKQQMAREYREKIETELRDICNDVLSLLEKFLIPNASQAESKVFYLKMKGDYYRYLAEVAAGDDKKGIVDQSQQAYQEAFEISKKEMQPTHPIRLGLALNFSVFYYEILNSPEKACSLAKTAFDEAIAELDTLSEESYKDSTLIMQLLRDNLTLWTSDTQGDEAEAGEGGEN
